Measured values published in the supplement of paper PMC12764529.
± gives the half width of the 95% confidence interval.

Assays:
[1] = folding stability dG unfold from chymotrypsin proteolysis; higher = more stable
Description: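 Folding stability of de novo designed mini-proteins (<80 aa, no Cys; designed by TrROS, TrMRF, ProteinMPNN and the joint model) was measured by cDNA display proteolysis with trypsin and chymotrypsin. Each protease was used at 11 concentrations in a threefold dilution series plus a no-protease condition. K50 was inferred by Bayesian fitting of sequencing counts, and dG unfold was derived against a sequence-predicted unfolded-state K50 (Tsuboyama et al. method). Sequences shown include variable-length N-terminal GS-type padding (SAGGSAGG...) inside a display construct carrying a PA tag. Rows were kept only if the AF2 dimer inter-PAE was >15, to exclude likely homo-oligomers.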

[2] = folding stability dG unfold (combined trypsin and chymotrypsin); higher = more stable
Method in brief: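 Bayesian fitting of sequencing counts gave K50 for each design. Unfolding free energy followed by setting this against a sequence-predicted unfolded-state K50 and a shared folded-state K50, either per protease or with trypsin and chymotrypsin combined. The designs, under 80 residues and lacking cysteine, were digested in a PA-tagged cDNA display format at 11 threefold-diluted protease concentrations and without protease, and only those with AlphaFold2 dimer inter-PAE above 15 were kept.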

Sequence	folding stability dG unfold [1]	folding stability dG unfold [2]
SAGGSAGGSAGGAPVTVIPVKKDNPEVREKTAKELKEKAKEIDPSNIKITIEKGVVTLESAGGSAGGSAGGS [r10_182_JUSTAS]	0.263 ± 0.049 kcal/mol	-0.0644 ± 0.13 kcal/mol
SAGGSAMKVEKEGDKVTIIVNAPESLNDKKVLTEKIKKAIEENKNKEVEIIAPPKYKPYAEETIKNSAGGSA [r15_89_JUSTAS]	-0.217 ± 0.52 kcal/mol	-0.558 ± 0.39 kcal/mol
SAGGSAGGSAGGSKIEVYKEPNKITIVIHPGNKPLVFTATEPIPIETLIKKAREAFPDASAGGSAGGSAGGS [r4_191_TrMRF]	0.516 ± 0.12 kcal/mol	-0.0455 ± 0.13 kcal/mol
SAGGSVTLPPEEARAYAEAHPDRDLVLSMRPDDSTVTLELSVDPAAPGALSVRRREVFDPAGNATVVDSAGG [r13_481_JUSTAS]	0.308 ± 0.13 kcal/mol	-0.182 ± 0.15 kcal/mol
SAGGSAGGSAGGAMPNDVKVTTTTFTGTETLTLTDASGTPTSSTKTVTTTRTSVFPDTTSAGGSAGGSAGGS [r10_1212_JUSTAS]	0.733 ± 0.1 kcal/mol	0.311 ± 0.13 kcal/mol
SAGGSAGPMVKTTEFSAVYTGPGGVSRGPVAVTVEIPPGDPSNPVLTVTLPDGTPRTLAAGEVEAASAGGSA [r15_954_JUSTAS]	-0.672 ± 0.36 kcal/mol	-0.757 ± 0.27 kcal/mol
SAGGMNSMRLTVEFPSPEQREEKLRQIVHKHGFTIKPKEVEPNPNGRMTHTIEINMPPKVRDAFKDLSAGGS [r8_357_TrROS]	-0.152 ± 0.19 kcal/mol	-0.659 ± 0.14 kcal/mol
SAGGAPVHLDTTATTIEPLPTGGPVLRVETRFPDGSTRTGDFASREELLARLEASPDAATIRLAAVASAGGS [r16_757_JUSTAS]	0.896 ± 0.056 kcal/mol	0.203 ± 0.096 kcal/mol
QIPPGAKVEFGNKEIEVPPGKELMIFNGHIMTQDDMEDMMKNMPDGMEMYRYKVEDNKGKIDKVRRMRMKPS [r1_304_TrROS]	-0.102 ± 0.57 kcal/mol	< -1 kcal/mol
SAGGMILIERDGRERVLEKAREAVEAEAARARAGDVEDAVLLVDLRVVDPVTGEWEELPVLARVPPASAGGS [r8_163_TrMRF]	0.461 ± 0.076 kcal/mol	-0.0473 ± 0.11 kcal/mol
SAGGSAGGGPDLKVTDIEFDPETGEIRIRTEAGGKLVAEVTIKGAPPVPVYPDKDGNWYPAGAKSAGGSAGG [r6_832_TrMRF]	0.986 ± 0.062 kcal/mol	0.517 ± 0.12 kcal/mol
SAGGSAGGSAGGMTLTVKDPASDEWTTVDLSPEQLPEVRAAVPEGPVTFELEASDSVIELSAGGSAGGSAGG [r7_188_JUSTAS]	0.94 ± 0.061 kcal/mol	0.409 ± 0.059 kcal/mol
SAGDYDVEKDPDGYRVEHKNGDKRYVPPVPPPIPVVMIPIKDPEDLDEFANELGLNITDISDDWITMPASAG [r5_328_TrROS]	0.422 ± 0.13 kcal/mol	-0.158 ± 0.27 kcal/mol
SAGGSAGGSAGGYDPNDKPVVEVPIELPPNDKKNPDRMKENAEEIANPLQEKGKPDRIVSAGGSAGGSAGGS [r10_723_TrROS]	0.907 ± 0.11 kcal/mol	0.475 ± 0.24 kcal/mol
SGRIKDVIMERDDNGGGNIMIMKLGNGEMEHIPPGEKLEIPLPPDDTLYLMVFDPNDGEPIETEEIKVDDSA [r9_209_TrROS]	-0.367 ± 0.35 kcal/mol	< -1 kcal/mol
SAGGSAGGSAARAYTDVDPVPSTLPNGERVVRVTEAGTGTTSDVPLEALADLDRGAGVTVPPSAGGSAGGSA [r18_288_JUSTAS]	0.538 ± 0.059 kcal/mol	-0.249 ± 0.069 kcal/mol
SAGGSAGGWFWVIKAEYPKNGRERSIQIPNEATDEDDVKEEVKELAEDLGAPIKKVEIEWIDPESAGGSAGG [r6_718_TrROS]	-0.474 ± 0.34 kcal/mol	< -1 kcal/mol
SAGGSAGGSASVGLLSVSTTPSGPGTTVTATTALPDGTVRTETRTEAGDGTATATTVTPLAASAGGSAGGSA [r18_79_JUSTAS]	0.271 ± 0.069 kcal/mol	-0.295 ± 0.15 kcal/mol
SGGMTPEQMIRHVLREARANNPGKKIEISWNSIQKNFPHPMSPEEIKKELKEEDGIKDVTIQPIPPNDPFSA [r9_738_TrROS]	-0.315 ± 0.29 kcal/mol	< -1 kcal/mol
SAGGMTIEVPDGFRIDGFRPFPDGRSAVLVRYKGTGKVEIFPFGDRVPEASADEPVEVEVVPIPPELLSAGG [r13_173_TrMRF]	0.155 ± 0.21 kcal/mol	-0.353 ± 0.14 kcal/mol
SAGGSAGGSAGGPIRIKNIENVNPDDGMFTVDVEFPDGKNHTYMIPPDQLEEPGDEIEIPSAGGSAGGSAGG [r7_117_TrROS]	-0.696 ± 0.54 kcal/mol	< -1 kcal/mol
SAGGSAGSHNQSPDGITLDAPLSSEEEIEALVAEVKAAAPPTYTVTVERTRSPSTLSVDVIVTAAPSAGGSA [r15_80_JUSTAS]	-0.579 ± 0.19 kcal/mol	-0.895 ± 0.97 kcal/mol
SAGGSAGGSGGMMVTITLPPGVPPSVVRAALEPLGVRVEVRPVPPVVPFRYPEPGELVFSPLGSAGGSAGGS [r12_80_JUSTAS]	0.373 ± 0.17 kcal/mol	< -1 kcal/mol
SAGGSAGGSAGGSMVYRVVLEPESGERVEFEVTYDEAEELLEKLPPNARLRIEPVPEDASAGGSAGGSAGGS [r4_63_TrMRF]	0.265 ± 0.13 kcal/mol	-0.0741 ± 0.17 kcal/mol
